Data on one molecule can be found in patent publication US20200325237A1 (AVIDITY BIOSCIENCES, published 2020).

By kon is commonly meant a measure of how fast the partners come together. High values mean faster complex formation, low ones slower complex formation. For orientation: Kd means the constant that tells how readily two partners part at equilibrium. As a reminder, the koff is a measure of how fast the partners let go of each other. A low value points to a long-lived complex.

Assay [1] addresses T1, hTfR (human transferrin receptor, source and construct not stated) (human, UniProt P02786 89-760, limits assumed). The assay can be described thus: ELISA; ratio of the Kd on transferrin-captured hTfR to the Kd on directly coated hTfR. An outline of the steps:
(§1)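 Human holo-transferrin coated at 500 ng/mL (4 °C overnight) captured hTfR (200 ng/mL, 30 min); comparison plates carried directly coated hTfR. Biotinylated antibodies, 3-fold series from 20 nM (pre-addition), bound 1 h; streptavidin-HRP/TMB, A450 minus A570. Kd from specific binding with Hill slope; shift judged against reference antibody AF2474 with transferrin-overlapping epitope.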
(In general: In an ELISA, binding on a coated surface is turned into a signal by an enzyme label.)

Assay [2] deals with T1, hTfR (human transferrin receptor, …). The assay can be described thus: ELISA; ratio of the Kd on HFE-captured hTfR to the Kd on directly coated hTfR.
The target is the same in assay [3]. The assay can be described thus: SPR (BioRad ProteOn XPR36), average of the three 13E4_WT runs, mAb captured on Protein A, hTfR as analyte, 25 C; Average (n = 3) of the three 13E4_WT runs. The procedure:
(§2) The binding kinetics of nine exemplary humanized anti-TfR antibodies and the parent chimeric antibody were characterized. Studies were run on a BioRad ProteOn XPR36 optical biosensor using a GLM sensor chip coated with Protein A for mAb capture. Running buffer included 10 mM EPES, 150 mM NaCl, pH 7.4 with 0.05 tween-20 with 0.2 mg/ml BSA. Data were collected at 25 degrees C. All mAbs were diluted into running buffer to 2 ug/ml based on the stock concentration provided. Each was then captured for 40 seconds over a Protein A surface.
(§3) hTfR (100 ug) was dissolved into […] of water to yield a 4.3 uM stock concentration. hTfR was dilted to 43 nM as the highest concentration and tested in a 3 fold dilution series. hTfR was injected at 200 ul/min for 2 minutes followed by a one-hour dissociation phase.

Assay [4] shares this target. The assay can be described thus: ELISA, biotinylated antibody on hTfR captured by plate-coated HFE (HFE+TfR); fit: specific binding with Hill slope.
The target in assay [5] is T2, recombinant cyno transferrin receptor protein (Sino Biological 90253-C07H) (cyno, UniProt H9EXL1 89-760 (rhesus entry)).
T2 construct: Bought protein coated on ELISA plates; also called recombinant cyno TfR1; cynoTfR1
T2 sequence (chain, as listed by the source C07H C07H): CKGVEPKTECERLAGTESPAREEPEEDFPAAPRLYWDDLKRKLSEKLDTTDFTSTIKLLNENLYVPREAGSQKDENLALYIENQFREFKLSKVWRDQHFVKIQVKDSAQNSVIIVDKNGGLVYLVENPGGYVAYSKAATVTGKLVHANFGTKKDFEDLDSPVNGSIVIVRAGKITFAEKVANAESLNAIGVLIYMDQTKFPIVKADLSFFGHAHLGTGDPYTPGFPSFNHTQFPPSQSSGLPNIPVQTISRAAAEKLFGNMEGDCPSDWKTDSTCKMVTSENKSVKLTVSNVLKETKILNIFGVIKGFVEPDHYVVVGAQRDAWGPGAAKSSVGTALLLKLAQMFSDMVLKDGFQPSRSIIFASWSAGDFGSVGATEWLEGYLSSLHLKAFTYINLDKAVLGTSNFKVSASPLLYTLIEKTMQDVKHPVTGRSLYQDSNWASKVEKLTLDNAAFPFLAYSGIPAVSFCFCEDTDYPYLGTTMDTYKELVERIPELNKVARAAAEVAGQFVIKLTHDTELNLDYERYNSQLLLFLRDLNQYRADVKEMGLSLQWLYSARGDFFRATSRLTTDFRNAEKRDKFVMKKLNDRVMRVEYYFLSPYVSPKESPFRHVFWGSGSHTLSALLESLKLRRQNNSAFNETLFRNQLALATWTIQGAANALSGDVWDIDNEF
The assay can be described thus: ELISA on plate-coated recombinant cyno TfR1 (CD71); fit: specific binding with Hill slope. An outline of the steps:
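Plates coated overnight at 4° C with recombinant human or cyno TfR1 (1 ng/μL), blocked, then incubated with samples up to 10 nM for 1 h at room temperature. Bound IgG detected with HRP anti-human Fcγ and TMB (A450 minus A570); Bmax, h and Kd from specific-binding-with-Hill-slope fit.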

Assay [6] deals with T1, hTfR (human transferrin receptor, …). The assay can be described thus: ELISA, biotinylated antibody on hTfR captured by plate-coated human holo-transferrin (Tf+TfR); fit: specific binding with Hill slope. The gist of the method:
as §1

Assay [7] concerns the target T3, recombinant human transferrin receptor protein (Sino Biological 11020-H07H) (human, UniProt P02786 89-760).
T3 construct: Bought protein coated on ELISA plates; also called recombinant human TfR1; human TfR1
The assay can be described thus: ELISA on plate-coated recombinant human TfR1 (CD71); fit: specific binding with Hill slope. On the procedure:
Half-well high-binding 96-well plates (Costar #3690) were coated with recombinant human transferrin receptor protein (Sino Biological 11020-H07H) or recombinant cyno transferrin receptor protein (Sino Biological 90253-C07H) at 1 ng/μL in PBS (Gibco 14190) and incubated overnight at 4° C. Plates were washed four times with 100 μL of Tris buffered saline+Tween (20×TBST, Cell Signaling 9997S). 100 μL of Superblock (ThermoFisher PI-37535) was added to each well and incubated for 1 hour at room temperature. The wash step was repeated before the addition of the samples. Samples were added at concentrations up to 10 nM, 50 μL/well. Plates were incubated for another hour at room temp and wash step repeated. Secondary antibody (Peroxidase AffiniPure Goat Anti-Human IgG, Fcγ Fragment Specific, Jackson Immunoresearch, 109-035-098) was diluted 1:5000 in Superblock and 50 μL/well added. Plates were incubated for 1 hour at room temperature and washed one more time. Binding was measured by the addition of 50 μL of 1-Step™ Ultra TMB-ELISA (ThermoFisher, 34028), incubated for 5 minutes, and the reaction was stopped with the addition of 25 μL of Stop Solution 2N sulfuric Acid (R&D Systems DY994). Absorbance was measured at 450 nm, with reference wavelength 570 nm subtracted. Binding constants were determined using GraphPad Prism Specific Binding with Hill Slope.

The target in assay [8] is T1, hTfR (human transferrin receptor, …). The assay can be described thus: SPR (BioRad ProteOn XPR36), average of the three 13E4_WT runs, mAb captured on Protein A, hTfR as analyte, 25 C. On the procedure: as §2, §3

T1 sequence (P02786 89-760 limits assumed): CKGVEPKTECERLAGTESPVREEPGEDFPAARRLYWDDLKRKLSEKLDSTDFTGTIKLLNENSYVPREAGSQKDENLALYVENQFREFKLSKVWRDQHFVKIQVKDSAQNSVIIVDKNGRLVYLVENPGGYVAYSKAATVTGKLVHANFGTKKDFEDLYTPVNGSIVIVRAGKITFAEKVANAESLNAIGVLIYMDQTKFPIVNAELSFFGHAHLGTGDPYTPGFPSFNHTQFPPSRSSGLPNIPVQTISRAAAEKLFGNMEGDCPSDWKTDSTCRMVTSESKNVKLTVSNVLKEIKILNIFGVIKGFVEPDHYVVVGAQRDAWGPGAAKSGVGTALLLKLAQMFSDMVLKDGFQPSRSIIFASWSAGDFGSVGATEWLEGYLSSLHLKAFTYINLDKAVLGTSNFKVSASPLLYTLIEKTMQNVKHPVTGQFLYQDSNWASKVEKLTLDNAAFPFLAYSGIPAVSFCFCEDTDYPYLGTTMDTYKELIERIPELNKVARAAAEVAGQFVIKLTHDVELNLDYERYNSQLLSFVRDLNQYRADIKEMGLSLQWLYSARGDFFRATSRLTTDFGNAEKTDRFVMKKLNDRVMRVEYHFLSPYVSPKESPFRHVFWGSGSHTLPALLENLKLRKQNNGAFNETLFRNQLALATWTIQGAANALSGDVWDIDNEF
T3 sequence (P02786 89-760 limits assumed): as above

B1: 13E4_WT (parent chimeric anti-TfR antibody) (antibody, V domains shown)
VH: QVQLQQPGAELVKPGASVKLSCKASGYTFTNYWMHWVKQRPGQGLEWIGEINPINGRSNYGERFKTKATLTVDKSSSTAYMQLSSLTSEDSAVYYCARGTRAMHYWGQGTSVTVSS
VL: DIQMTQSPASLSVSVGETVTITCRTSENIYNNLAWYQQKQGKSPQLLVYAATNLADGVPSRFSGSGSGTQYSLKINSLQSEDFGNYYCQHFWGTPLTFGAGTKLELK
notes: also called 13E4_WT 1st; 13E4_WT 2nd
As for B1, the “Kd(Tf+TfR)/Kd(TfR)” value in assay [1] stood at 3.1. The “Kd(HFE+TfR)/Kd(TfR)” value in assay [2] came to 16.9. Moreover, the kon in assay [3] is 900000 M⁻¹ s⁻¹. The Bmax in assay [4] was 2.88 A450; in assay [5] it was 99.1 % max binding; in assay [6], 3.45 A450; in assay [7], 98.3 % max binding. The Kd in assay [4] came to 286 pM; in assay [5], 5.82 pM; in assay [6], 51.8 pM; in assay [7], 6.2 pM; in assay [8], 1.1 pM. The h in assay [4] came to 1.54; in assay [5] it was 1.34; in assay [6] it was 1.57; in assay [7], 1.18. The koff in assay [8] is 1e-06 s⁻¹.
